# Results published in patent US20240084003A1 (SIMCERE ZAIMING PHARMACEUTICAL, published 2024).
# Like-named read-outs stand apart in the source and are kept apart here.
# T1: monkey CD22 on HEK293T-monkey CD22 cells (monkey)
# T1 construct: full-length entry expressed on stably transfected HEK293T cells
# T1 chain: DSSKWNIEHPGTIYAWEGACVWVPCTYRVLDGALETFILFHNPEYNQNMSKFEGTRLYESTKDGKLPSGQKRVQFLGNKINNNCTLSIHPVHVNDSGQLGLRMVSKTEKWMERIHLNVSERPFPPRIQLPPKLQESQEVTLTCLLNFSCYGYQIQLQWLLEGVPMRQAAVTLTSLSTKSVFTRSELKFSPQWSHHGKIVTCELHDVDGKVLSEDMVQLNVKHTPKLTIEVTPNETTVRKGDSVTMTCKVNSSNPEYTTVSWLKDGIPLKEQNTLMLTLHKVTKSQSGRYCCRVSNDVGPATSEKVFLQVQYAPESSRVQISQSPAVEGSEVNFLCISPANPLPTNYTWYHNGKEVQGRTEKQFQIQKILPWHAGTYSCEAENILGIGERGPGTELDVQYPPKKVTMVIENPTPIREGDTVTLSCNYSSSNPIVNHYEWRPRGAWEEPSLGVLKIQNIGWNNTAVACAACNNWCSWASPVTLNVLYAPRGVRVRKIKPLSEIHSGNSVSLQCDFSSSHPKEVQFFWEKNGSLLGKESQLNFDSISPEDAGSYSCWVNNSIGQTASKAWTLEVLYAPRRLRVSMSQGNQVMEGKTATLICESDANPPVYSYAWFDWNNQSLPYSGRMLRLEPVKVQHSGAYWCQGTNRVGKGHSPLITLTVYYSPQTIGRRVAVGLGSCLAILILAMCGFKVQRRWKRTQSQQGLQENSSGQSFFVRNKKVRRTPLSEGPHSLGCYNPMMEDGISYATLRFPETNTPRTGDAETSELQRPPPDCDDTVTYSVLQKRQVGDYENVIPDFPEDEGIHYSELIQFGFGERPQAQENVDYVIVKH
# T2: monkey CD22 protein (ACROBiosystems, catalog number SI2-R52Ha) (monkey, UniProt F6W485 20-688)
# T2 construct: commercial protein; also called monkey CD22-ECD; monkey CD22-ECD-His
# T2 sequence: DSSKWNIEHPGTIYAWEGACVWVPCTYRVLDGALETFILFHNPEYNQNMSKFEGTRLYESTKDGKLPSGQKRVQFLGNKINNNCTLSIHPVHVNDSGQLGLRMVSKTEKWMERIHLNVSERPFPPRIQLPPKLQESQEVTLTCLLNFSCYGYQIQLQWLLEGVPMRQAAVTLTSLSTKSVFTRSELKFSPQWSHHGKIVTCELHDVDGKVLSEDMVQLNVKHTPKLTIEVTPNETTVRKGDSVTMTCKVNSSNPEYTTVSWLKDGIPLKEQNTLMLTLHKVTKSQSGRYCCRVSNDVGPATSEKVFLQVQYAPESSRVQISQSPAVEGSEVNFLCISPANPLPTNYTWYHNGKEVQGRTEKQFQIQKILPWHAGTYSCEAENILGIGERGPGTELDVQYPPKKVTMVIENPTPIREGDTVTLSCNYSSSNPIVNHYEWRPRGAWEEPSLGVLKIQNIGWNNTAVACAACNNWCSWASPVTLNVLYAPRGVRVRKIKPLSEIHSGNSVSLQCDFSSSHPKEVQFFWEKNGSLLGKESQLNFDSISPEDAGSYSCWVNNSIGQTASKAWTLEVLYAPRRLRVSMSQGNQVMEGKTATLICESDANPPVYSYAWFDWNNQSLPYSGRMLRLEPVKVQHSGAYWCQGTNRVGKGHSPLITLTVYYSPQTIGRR
# Tests used:
# [1] = target: T1, monkey CD22 on HEK293T-monkey CD22 cells; assay: FACS, HEK293T-monkey CD22 cells
# Experimental: (§1) For suspension cell Raji, the medium supernatant was directly centrifuged and discarded, and the cell pellet was washed 2 times with PBS. After counting the cells in the previous step, the cell pellet was resuspended with [PBS+2% (w/w) BSA] blocking solution to 2×10⁶ cells/ml, and added to a 96-well FACS reaction plate at 50 μl/well, and then the chimeric antibody test sample was added at 50 μl/well, and incubated on ice for 2 hours. The mixture was centrifuged and washed 3 times with PBS buffer, Alexa Flour 488-labeled secondary antibody (purchased from Invitrogen, catalog number: A-11013) was added at 50 μl/well, and incubated on ice for 1 hour. The obtained mixture was centrifuged and washed 5 times with PBS, and FACS (FACS Canto™, purchased from BD Company) was used for detection and result analysis. Data analysis was performed by software (CellQuest) to obtain the mean fluorescence density (MFI)of the cells. And then software (GraphPad Prism8) was used for analysis, data fitting, and EC50 value calculation. […] The same method was used to detect the binding of the chimeric antibodies to endogenous CD22-negative cell MoLT4 cells (purchased from ATCC, CRL-1582) and CHO-K1 cells.
# (§2) HEK293T-monkey CD22 cells were subjected to FACS detection and data analysis according to the method in Example 5.2.
# [2] = target: T1, monkey CD22 on HEK293T-monkey CD22 cells; assay: FACS, HEK293T-monkey CD22 cells
# Experimental: as §1, §2
# [3] = target: T1, monkey CD22 on HEK293T-monkey CD22 cells; assay: FACS, HEK293T-monkey CD22 cells, EC50 column
# Experimental: as §1, §2
# [4] = target: T2, monkey CD22 protein (ACROBiosystems, …); assay: ELISA, coated monkey CD22 protein, antibody 10 nM
# Experimental: (§3) In order to detect the binding activity of CD22 human-murine chimeric antibodies to CD22 protein, the purified human CD22-ECD-His protein obtained in Example 2 was diluted with PBS to a final concentration of 2 μg/mL, and then added to 96-well ELISA plate at 100 μl/well. The plate was sealed with plastic film and incubated overnight at 4° C., the plate was washed 2 times with PBS the next day, and then a blocking solution [PBS+2% (w/w) BSA] was added for blocking at room temperature for 2 hours. […] After incubation at 37° C. for 2 hours, the plate was washed 3 times with PBS. HRP (horseradish peroxidase)-labeled secondary antibody (purchased from Sigma, catalog number: A0170) was added, and incubated at 37° C. for 2 hours, and the plate was washed 5 times with PBS. TMB substrate was added at 50 μl/well, and incubated at room temperature for 30 minutes, then a stop solution (1.0 N HCl) was added at 50 μl/well.
# (§4) In order to detect the species cross-binding activity of the chimeric antibodies, an ELISA plate was coated with commercial murine CD22 protein (ACROBiosystems, catalog number: SI2-M52Ha) and monkey CD22 protein (ACROBiosystems, catalog number: SI2-R52Ha), respectively, and the ELISA detection was performed according to the method in Example 5.1.
# [5] = target: T2, monkey CD22 protein (ACROBiosystems, …); assay: ELISA, coated monkey CD22 protein, antibody 0.1 nM
# Experimental: as §3, §4
# [6] = target: T2, monkey CD22 protein (ACROBiosystems, …); assay: ELISA, coated monkey CD22 protein, antibody 100 nM
# Experimental: as §3, §4
# [7] = target: T2, monkey CD22 protein (ACROBiosystems, …); assay: ELISA, coated monkey CD22 protein, antibody 0.01 nM
# Experimental: as §3, §4
# [8] = target: T2, monkey CD22 protein (ACROBiosystems, …); assay: ELISA, coated monkey CD22 protein, antibody 0.001 nM
# Experimental: as §3, §4
# [9] = target: T2, monkey CD22 protein (ACROBiosystems, …); assay: ELISA, coated monkey CD22 protein, antibody 0.0001 nM
# Experimental: as §3, §4
# [10] = target: T2, monkey CD22 protein (ACROBiosystems, …); assay: ELISA, coated monkey CD22 protein, antibody 0.00001 nM
# Experimental: as §3, §4
binder,measurement,setting,value
"m971-hIgG1 (antibody, V domains shown, control anti-CD22 antibody; variable regions from US 8,591,889 on human IgG1 constant regions) VH: QVQLQQSGPGLVKPSQTLSLTCAISGDSVSSNSAAWNWIRQSPSRGLEWLGRTYYRSKWYNDYAVSVKSRITINPDTSKNQFSLQLNSVTPEDTAVYYCAREVTGDLEDAFDIWGQGTMVTVSS VL: DIQMTQSPSSLSASVGDRVTITCRASQTIWSYLNWYQQRPGKAPNLLIYAASSLQSGVPSRFSGRGSGTDFTLTISSLQAEDFATYYCQQSYSIPQTFGQGTKLEIKR",Maximum mean fluorescence intensity,[1],49 MFI
same,Maximum mean fluorescence intensity,[2],104 MFI
same,binding result,[3],no binding
same,OD450,[4],0.09 OD450
same,OD450,[5],0.07 OD450
same,OD450,[6],0.12 OD450
same,OD450,[7],0.07 OD450
same,OD450,[8],0.06 OD450
same,OD450,[9],0.07 OD450
same,OD450,[10],0.07 OD450
